{
  "source": "patent US20240287172A1",
  "about": "(SCIRHOM, published 2024)",
  "binders": {"B1": {"name": "antibody 50 (antibody, V domains shown)", "VH": "QVQLQQSGAELVRPGASVKVSCKASGYAFSNYLIEWVKQRPGQGLEWIGVINPGSGFTKYNEKFKGKATLTADKSSSTAYMQLSSLTSEDSAVYFCARGLYRAMDYWGQGTSVTVSS", "VL": "DIQMTQSPASQSASLGESVTITCLASQTIGTWLAWYQQKPGKSPQLLIYAAASLADGVPSRFSGGGSGTKFSFKISSLQAEDFVNYYCQQIYSTPYTFGGGTKLEIK", "notes": "mouse IgG, kappa light chain; also called clone #50; purified antibody 50"}},
  "key": {"hiR2-FL-L438S-T7": {"target": "T1, hiR2-FL-L438S-T7 (human, UniProt Q6PJF5 1-856)", "T1 sequence": "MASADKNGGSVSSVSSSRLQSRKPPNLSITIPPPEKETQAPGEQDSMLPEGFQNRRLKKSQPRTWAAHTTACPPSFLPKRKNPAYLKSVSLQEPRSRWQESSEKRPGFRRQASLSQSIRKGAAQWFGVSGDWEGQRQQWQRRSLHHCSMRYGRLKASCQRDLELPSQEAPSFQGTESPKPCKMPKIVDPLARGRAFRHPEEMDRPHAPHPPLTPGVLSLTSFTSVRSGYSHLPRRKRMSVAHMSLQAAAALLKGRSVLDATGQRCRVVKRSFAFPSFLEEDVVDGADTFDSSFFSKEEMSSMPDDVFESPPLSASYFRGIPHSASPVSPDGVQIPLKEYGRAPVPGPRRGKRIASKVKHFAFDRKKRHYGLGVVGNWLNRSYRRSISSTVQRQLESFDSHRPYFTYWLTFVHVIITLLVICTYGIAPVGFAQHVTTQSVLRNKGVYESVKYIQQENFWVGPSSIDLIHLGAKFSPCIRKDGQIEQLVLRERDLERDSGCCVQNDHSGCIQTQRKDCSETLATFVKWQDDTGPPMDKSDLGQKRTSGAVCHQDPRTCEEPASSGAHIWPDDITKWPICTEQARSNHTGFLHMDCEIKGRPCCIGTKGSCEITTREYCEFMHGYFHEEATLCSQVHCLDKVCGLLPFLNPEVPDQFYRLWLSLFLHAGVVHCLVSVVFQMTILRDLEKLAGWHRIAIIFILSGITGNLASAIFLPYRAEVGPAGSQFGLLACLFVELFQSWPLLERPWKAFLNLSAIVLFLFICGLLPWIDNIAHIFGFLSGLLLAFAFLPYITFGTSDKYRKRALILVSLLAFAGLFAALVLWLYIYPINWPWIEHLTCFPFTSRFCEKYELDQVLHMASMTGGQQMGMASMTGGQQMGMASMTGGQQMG", "test": "FACS, MEF-DKO cells, 3 µg/ml"}, "miR2-FL-WT-T7": {"target": "T2, miR2-FL-WT-T7 (mouse, UniProt Q80WQ6 1-827)", "T2 construct": "on MEF-DKO cells", "T2 sequence": "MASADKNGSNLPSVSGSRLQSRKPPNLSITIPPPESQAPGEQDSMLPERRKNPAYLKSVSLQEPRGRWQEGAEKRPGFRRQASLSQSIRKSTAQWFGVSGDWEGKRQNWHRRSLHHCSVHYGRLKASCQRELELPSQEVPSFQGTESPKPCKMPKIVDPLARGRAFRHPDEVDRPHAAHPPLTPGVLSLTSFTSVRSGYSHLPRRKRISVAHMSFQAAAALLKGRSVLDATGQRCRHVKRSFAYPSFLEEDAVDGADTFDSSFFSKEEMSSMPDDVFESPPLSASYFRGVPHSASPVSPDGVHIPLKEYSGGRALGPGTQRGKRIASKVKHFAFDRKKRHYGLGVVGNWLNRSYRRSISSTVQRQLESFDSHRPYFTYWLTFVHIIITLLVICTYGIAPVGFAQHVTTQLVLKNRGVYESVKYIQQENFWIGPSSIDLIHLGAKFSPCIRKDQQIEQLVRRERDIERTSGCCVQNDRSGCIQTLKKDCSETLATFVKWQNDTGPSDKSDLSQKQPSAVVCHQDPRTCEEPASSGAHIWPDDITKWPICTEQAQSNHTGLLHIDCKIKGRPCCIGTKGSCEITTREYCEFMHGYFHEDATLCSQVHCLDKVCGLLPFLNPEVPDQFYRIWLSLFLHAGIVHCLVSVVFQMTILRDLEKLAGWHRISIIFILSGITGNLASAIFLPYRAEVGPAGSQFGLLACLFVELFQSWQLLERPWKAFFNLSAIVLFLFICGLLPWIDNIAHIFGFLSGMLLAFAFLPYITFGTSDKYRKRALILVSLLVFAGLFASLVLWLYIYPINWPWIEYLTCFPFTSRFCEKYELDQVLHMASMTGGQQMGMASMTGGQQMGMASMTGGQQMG", "test": "FACS on MEF-DKO-miR2-FL-WT-T7 cells"}},
  "data": [
    {"binder": "B1", "values": [
      {"measurement": "loss of binding vs wild type", "setting": "hiR2-FL-L438S-T7", "value": "≥ 30", "unit": "%"},
      {"measurement": "binding result", "setting": "miR2-FL-WT-T7", "value": "no binding (tested: 3 µg/ml)"}
    ]}
  ]
}
